Among the data in patent publication US20050118719A1 are Basal activity (31° C.), Miller units; β-Gal from Op72lacZcoi reporter in K. pneumoniae, Fold-induction; β-Gal from Op72lacZcoi reporter in K. pneumoniae and Induced activity (42° C.), Miller units; β-Gal from Op72lacZcoi reporter in K. pneumoniae values, retold here.

The target of the experiment is temperature sensitive C1 repressor polypeptide from thermoinducible bacteriophage P1Cm carrying the c1.100 mutation (bacteriophage P1). Briefly: cell-based or functional assay.

Consider “Coi polypeptide (C1 inactivator polypeptide) from bacteriophage P1”, for which the Basal activity (31° C.), Miller units; β-Gal from Op72lacZcoi reporter in K. pneumoniae was 36.4 Miller units; the Fold-induction; β-Gal from Op72lacZcoi reporter in K. pneumoniae was determined as 19 fold; the Induced activity (42° C.), Miller units; β-Gal from Op72lacZcoi reporter in K. pneumoniae was found to be 698 Miller units.
